Consider 15 molecules from patent publication US20190185561A1 (Seagen, published 2019).

Test [1] has as its target murine CD47 on murine CD47 positive tumor cells (mouse) (UniProt Q61735). Put plainly: saturation binding by flow cytometry on HT-2 (mouse T cells); range printed beside the two rising curves (mIAP and Cleaved Vel), upper end. For orientation: Flow cytometry measures light scatter and fluorescence of single cells or particles in a stream.
Test [2] has the same target. Put plainly: saturation binding by flow cytometry on HT-2 (mouse T cells); range printed beside the two rising curves (mIAP and Cleaved Vel), lower end.
Test [3] shares this target. Put plainly: saturation binding by flow cytometry on HT-2 (mouse T cells).
The target in test [4] is T1, human CD47 expressed on the cell surface (human, UniProt Q08722 19-323).
T1 construct: whole, on cells; also called CD47 on SW780, human red blood cells, HT1080, HCT116, Raji, L450cy and patient blood cells
Put plainly: saturating cellular FACS on L450cy lymphoma cells.

Test [5] concerns the target T2, Soluble recombinant human CD47-Fc (R&D Systems) (human, UniProt Q08722 19-139).
T2 construct: Bought reagent; also called rhCD47; human CD47 (plate-coated); not shown: Fc part of the bought fusion protein
Put plainly: saturating ELISA on plates coated with human CD47; column head 'Average EC50 (nM)'. Background: An ELISA detects its analyte on a solid surface through an enzyme-linked reagent.

Test [6] addresses T1, human CD47 expressed on the cell surface. Put plainly: saturation binding, flow cytometry, HCT116 cells.
Test [7] shares this target. Put plainly: saturation binding, flow cytometry, HT1080 cells.
For test [8] the target is unchanged. Put plainly: saturation binding, flow cytometry, SW780 cells.
For test [9] the target is unchanged. Put plainly: saturation binding, flow cytometry, Raji cells.
Test [10] has as its target T2, Soluble recombinant human CD47-Fc (R&D …). Put plainly: hCD47 ELISA, absorbance at 450 nm against antibody concentration.
Test [11] concerns the target T1, human CD47 expressed on the cell surface. Put plainly: saturation binding, flow cytometry, human red blood cells.
Test [12] shares this target. Put plainly: saturation binding, flow cytometry, SW780 cells. This is another data set of the same source.
Test [13] concerns the target T2, Soluble recombinant human CD47-Fc (R&D …). Put plainly: saturation binding ELISA on rhCD47.
The target of test [14] is T1, human CD47 expressed on the cell surface. Put plainly: saturation binding, flow cytometry, SW780 cells. The source holds these as a separate data set.
For test [15] the target is unchanged. Put plainly: saturation binding, flow cytometry, human red blood cells. The source holds these as a separate data set.
Test [16] shares this target. Put plainly: saturation binding, flow cytometry, SW780 cells. The source holds these as a separate data set.

Chain of murine CD47 on murine CD47 positive tumor cells (mouse) (Q61735 19-303): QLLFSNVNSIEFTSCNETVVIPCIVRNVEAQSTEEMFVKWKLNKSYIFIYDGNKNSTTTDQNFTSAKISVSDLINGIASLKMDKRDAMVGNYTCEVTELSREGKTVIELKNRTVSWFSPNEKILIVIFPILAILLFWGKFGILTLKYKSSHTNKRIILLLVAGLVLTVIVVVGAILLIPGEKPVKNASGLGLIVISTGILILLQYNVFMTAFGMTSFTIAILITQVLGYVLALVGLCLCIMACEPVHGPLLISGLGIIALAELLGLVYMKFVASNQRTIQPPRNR

Usually Kd stands for the equilibrium constant for the complex coming apart. As a reminder, the EC50 (read off the curve) is the concentration giving half of the maximal effect. Regarding mIAP301 (antibody), the Kd in [1] was less than 0.015 µM; in test [2], greater than 0.0075 µM. The molecule also gave an EC50 (read off the curve) in [3] of 0.01 to 0.02 µM.

B1: mB6H12 (antibody, V domains shown)
VH: EVQLVESGGDLVKPGGSLKLSCAASGFTFSGYGMSWVRQTPDKRLEWVATITSGGTYTYYPDSVKGRFTISRDNAKNTLYLQIDSLKSEDTAIYFCARSLAGNAMDYWGQGTSVTVSS
VL: DIVMTQSPATLSVTPGDRVSLSCRASQTISDYLHWYQQKSHESPRLLIKFASQSISGIPSRFSGSGSGSDFTLSINSVEPEDVGVYYCQNGHGFPRTFGGGTKLEIKR
notes: Murine parental antibody; also called murine B6H12; mouse B6H12
A word on the EC50: it is the concentration needed to bring the measured effect to its halfway point. Molecule B1 yielded a Kd in [4] of 0.0012 µM. In addition, the EC50 in test [5] is 0.037 µM.

B2: Ab47 bearing the A4B4 coiled coil masking domain (antibody)
VH: GKIAALKQKIAALKYKNAALKKKIAALKQGGGGGPLGVRGGGGSEVQLVESGGGLVQPGGSLRLSCAASGFTFSGYGMSWVRQAPGKGLEWVATITSGGTYTYYPDSVKGRFTISRDNAKNSLYLQMNSLRAEDTAVYYCARSLAGNAMDYWGQGTLVTVSS
VL: GEIAALEQEIAALEKENAALEWEIAALEQGGGGGPLGVRGGGGSEIVLTQSPATLSLSPGERATLSCRASQTISDYLHWYQQKPGQAPRLLIKFASQSISGIPARFSGSGSGTDFTLTISSLEPEDFAVYYCQNGHGFPRTFGQGTKVEIKR
notes: IgG1
With B2, the Kd in test [6] turned out to be 1.12 µM; in test [7], 1.18 µM; in test [8], 1.68 µM; in test [9], 0.466 µM.

B3: hB6H12.4 (antibody, V domains shown)
VH: EVQLLESGGGLVQPGGSLRLSCAASGFTFSGYGMSWVRQAPGKRLEWVATITSGGTYTYYPDSVKGRFTISRDNSKNTLYLQMNSLRAEDTAIYFCARSLAGNAMDYWGQGTLVTVSS
VL: DIQMTQSPSSLSASVGDRVTLTCRASQTISNYLAWYQQKPGKVPKLLIKFASTLQSGVPSRFSGSGSGSDFTLTISSLQPEDVATYYCQNGHGFPRTFGQGTKLEIKR
notes: also called hvH1/hvK4; antibody 4 (bin A)
B3 had a Kd in test [4] of 0.0009 µM. The concentration giving a half-maximal response (EC50) in [5] came out at 0.024 µM. Further, the “EC50 (read off the curve)” value in test [10] is roughly 0.001 µM.

B4: Ab47 (antibody, V domains shown)
VH: EVQLVESGGGLVQPGGSLRLSCAASGFTFSGYGMSWVRQAPGKGLEWVATITSGGTYTYYPDSVKGRFTISRDNAKNSLYLQMNSLRAEDTAVYYCARSLAGNAMDYWGQGTLVTVSS
VL: EIVLTQSPATLSLSPGERATLSCRASQTISDYLHWYQQKPGQAPRLLIKFASQSISGIPARFSGSGSGTDFTLTISSLEPEDFAVYYCQNGHGFPRTFGQGTKVEIKR
notes: Humanized IgG1; also called alternatively humanized antibody Ab47; humanized IgG1 hB6H12 Ab47
Consider B4, for which the Kd in test [4] is 0.0005 µM; in test [6] it was 0.0078 µM; in test [11] it was 0.0265 µM; in test [12], 0.008 µM; in test [7], 0.021 µM; in test [13] it was 0.001 µM. Besides, the Kd turned out to be 0.0096 µM in test [8], 0.0068 µM in test [14], 0.0121 µM in test [15] and 0.0033 µM in test [9]. Further, in [5], the concentration giving a half-maximal response (EC50) is 0.016 µM. Moreover, in [10], the 50% effective concentration (EC50 (read off the curve)) was roughly 0.001 µM.

B5: hB6H12.2 (antibody, V domains shown)
VH: EVQLLESGGGLVQPGGSLRLSCAASGFTFSGYGMSWVRQAPGKRLEWVATITSGGTYTYYPDSVKGRFTISRDNSKNTLYLQMNSLRAEDTAIYFCARSLAGNAMDYWGQGTLVTVSS
VL: EIVMTQSPDFQSVTPKEKVTLTCRASQTISDYLHWYQQKPDQSPKLLIKFASQSISGVPSRFSGSGSGTDFTLTINSLEAEDAATYYCQNGHGFPRTFGQGTKLEIKR
notes: also called hvH1/hvK2; antibody 2 (bin A)
In test [4], B5 showed a Kd of 0.0009 µM. Also, the EC50 in test [5] came to 0.03 µM.

B6: Cleaved Vel-IPV-hB6H12.4 (antibody, V domains shown)
VH: EVQLLESGGGLVQPGGSLRLSCAASGFTFSGYGMSWVRQAPGKRLEWVATITSGGTYTYYPDSVKGRFTISRDNSKNTLYLQMNSLRAEDTAIYFCARSLAGNAMDYWGQGTLVTVSS
VL: DIQMTQSPSSLSASVGDRVTLTCRASQTISNYLAWYQQKPGKVPKLLIKFASTLQSGVPSRFSGSGSGSDFTLTISSLQPEDVATYYCQNGHGFPRTFGQGTKLEIKR
notes: MMP2-cleaved; IgG1
B6: the Kd in test [16] was determined as 0.0092 µM.

B7: hB6H12.18 (antibody, V domains shown)
VH: EVQLVESGGGLVQPGGSLRLSCAASGFTFSGYGMSWVRQAPGKGLEWVATITSGGTYTYYADSVKGRFTISRDNSKNTLYLQINSLRAEDTAVYYCARSLAGNAMDYWGQGTLVTVSS
VL: EIVMTQSPDFQSVTPKEKVTLTCRASQTISDYLHWYQQKPDQSPKLLIKFASQSISGVPSRFSGSGSGTDFTLTINSLEAEDAATYYCQNGHGFPRTFGQGTKLEIKR
notes: also called hvH5/hvK2; antibody 18 (bin B)
Consider B7, for which, in test [4], the Kd is 0.0011 µM. Also, the EC50 in test [5] amounted to 0.038 µM.

B8: hB6H12.1 (antibody, V domains shown)
VH: EVQLLESGGGLVQPGGSLRLSCAASGFTFSGYGMSWVRQAPGKRLEWVATITSGGTYTYYPDSVKGRFTISRDNSKNTLYLQMNSLRAEDTAIYFCARSLAGNAMDYWGQGTLVTVSS
VL: EIVMTQSPDFQSVTPKEKVTLTCRASQTISDYLHWYQQKPDQSPKLLIKFASQSISGVPSRFSGSGSGTDFTLTINSLEAEDAAVYYCQNGHGFPRTFGQGTKLEIKR
notes: also called hvH1/hvK1; antibody 1 (bin A)
B8: binding in [4] was put at a Kd of 0.0009 µM. Also, the EC50 in test [5] came out at 0.03 µM.

B9: Cleaved Vel-IPV-hB6H12.20 (antibody, V domains shown)
VH: EVQLVESGGGLVQPGGSLRLSCAASGFTFSGYGMSWVRQAPGKGLEWVATITSGGTYTYYADSVKGRFTISRDNSKNTLYLQINSLRAEDTAVYYCARSLAGNAMDYWGQGTLVTVSS
VL: DIQMTQSPSSLSASVGDRVTLTCRASQTISNYLAWYQQKPGKVPKLLIKFASTLQSGVPSRFSGSGSGSDFTLTISSLQPEDVATYYCQNGHGFPRTFGQGTKLEIKR
notes: MMP2-cleaved; IgG1
For the molecule B9, in [16], binding was put at a Kd of 0.0302 µM.

B10: hB6H12.19 (antibody, V domains shown)
VH: EVQLVESGGGLVQPGGSLRLSCAASGFTFSGYGMSWVRQAPGKGLEWVATITSGGTYTYYADSVKGRFTISRDNSKNTLYLQINSLRAEDTAVYYCARSLAGNAMDYWGQGTLVTVSS
VL: EIVMTQSPDFQSVTPKEKVTLTCRASQTISDYLHWYQQKPDQSPKLLIKFASQSISGVPSRFSGSGSGSDFTLTINSLEAEDAATYYCQNGHGFPRTFGQGTKLEIKR
notes: also called hvH5/hvK3; antibody 19 (bin B)
B10: the Kd in test [4] came to 0.0013 µM. Also, the EC50 in [5] turned out to be 0.055 µM. Moreover, the “EC50 (read off the curve)” value in [10] is roughly 0.003 µM.

B11: hB6H12.17 (antibody, V domains shown)
VH: EVQLVESGGGLVQPGGSLRLSCAASGFTFSGYGMSWVRQAPGKGLEWVATITSGGTYTYYADSVKGRFTISRDNSKNTLYLQINSLRAEDTAVYYCARSLAGNAMDYWGQGTLVTVSS
VL: EIVMTQSPDFQSVTPKEKVTLTCRASQTISDYLHWYQQKPDQSPKLLIKFASQSISGVPSRFSGSGSGTDFTLTINSLEAEDAAVYYCQNGHGFPRTFGQGTKLEIKR
notes: also called hvH5/hvK1; antibody 17 (bin B)
In the case of B11, in test [4], the Kd turned out to be 0.001 µM. The EC50 in test [5] worked out at 0.043 µM.

B12: hB6H12.20 (antibody, V domains shown)
VH: EVQLVESGGGLVQPGGSLRLSCAASGFTFSGYGMSWVRQAPGKGLEWVATITSGGTYTYYADSVKGRFTISRDNSKNTLYLQINSLRAEDTAVYYCARSLAGNAMDYWGQGTLVTVSS
VL: DIQMTQSPSSLSASVGDRVTLTCRASQTISNYLAWYQQKPGKVPKLLIKFASTLQSGVPSRFSGSGSGSDFTLTISSLQPEDVATYYCQNGHGFPRTFGQGTKLEIKR
notes: also called hvH5/hvK4; antibody 20 (bin B)
Take B12: in test [4], binding was characterised by a dissociation constant (Kd) of 0.0018 µM. Moreover, in test [5], the half-maximal effective concentration (EC50) is 0.056 µM. For the same molecule, in [10], the concentration giving a half-maximal response (EC50 (read off the curve)) is roughly 0.004 µM.

B13: Ab47 G91A (antibody, name in Kabat numbering, V domains shown)
VH: EVQLVESGGGLVQPGGSLRLSCAASGFTFSGYGMSWVRQAPGKGLEWVATITSGGTYTYYPDSVKGRFTISRDNAKNSLYLQMNSLRAEDTAVYYCARSLAGNAMDYWGQGTLVTVSS
VL: EIVLTQSPATLSLSPGERATLSCRASQTISDYLHWYQQKPGQAPRLLIKFASQSISGIPARFSGSGSGTDFTLTISSLEPEDFAVYYCQNAHGFPRTFGQGTKVEIKR
notes: built from the Ab47 light chain variable region with G91A; IgG1; also called Ab47 variant bearing a G91A mutation in LCDR3
As to B13, the Kd in [14] was found to be 0.0198 µM; in test [15] it was 0.1 µM.

B14: Cleaved Vel-IPV-hB6H12.19 (antibody, V domains shown)
VH: EVQLVESGGGLVQPGGSLRLSCAASGFTFSGYGMSWVRQAPGKGLEWVATITSGGTYTYYADSVKGRFTISRDNSKNTLYLQINSLRAEDTAVYYCARSLAGNAMDYWGQGTLVTVSS
VL: EIVMTQSPDFQSVTPKEKVTLTCRASQTISDYLHWYQQKPDQSPKLLIKFASQSISGVPSRFSGSGSGSDFTLTINSLEAEDAATYYCQNGHGFPRTFGQGTKLEIKR
notes: MMP2-cleaved; IgG1
B14 registered a Kd in test [16] of 0.0266 µM.
